B1: TRIM9 (parent)
chain: CVQCKMPVCYQCLEEGKHSSHEVK
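Note: lentivirally expressed fusions sorted by FACS into six bins by GFP to DsRed ratio, PSI derived from sequencing read proportions per bin multiplied by bin number.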

The variants in this data set derive from B1. The data set can be described thus: protein stability index of a GFP-peptide fusion (GPS, HEK-293T) (PSI 1-6); higher = more stable. The note with it: c terminus: a fixed tail appended.
As for CVQCDMPVCYQCLEEGKHSSHEVK [K5D], the protein stability index was determined as 3.75.
The same measure for CVQCKMPVCYQCLEQGKHSSHEVK [E15Q]: 3.76; for CVQCKMPVCYQCLENGKHSSHEVK [E15N]: 3.82; for CVQCKMPVCYQCLEKGKHSSHEVK [E15K]: 3.67.
Take CVQCKMPVCYQCLERGKHSSHEVK [E15R]: the protein stability index was 3.47.
The figure for CVQCKMPVCYQCLEAGKHSSHEVK [E15A] is 4.08.
The figure for CYQCKMPVCYQCLEEGKHSSHEVK [V2Y] is 3.71.
The same measure for CKQCKMPVCYQCLEEGKHSSHEVK [V2K]: 4.29.
CEQCKMPVCYQCLEEGKHSSHEVK [V2E]: the protein stability index is 3.92.
The same measure for CVQCKMPVCYQGLEEGKHSSHEVK [C12G]: 3.81; for CVQCKMPVCYQFLEEGKHSSHEVK [C12F]: 3.19.
The figure for CVQCKMPVCYQQLEEGKHSSHEVK [C12Q] is 4.03.
In the case of CVQCKMPVCYQELEEGKHSSHEVK [C12E], the protein stability index turned out to be 4.25.
The same measure for CVQCKMPVCYQCLHEGKHSSHEVK [E14H]: 3.34; for CVQCKMPVCYQCLDEGKHSSHEVK [E14D]: 2.99.
The figure for CVQCKMPVCYQCLSEGKHSSHEVK [E14S] is 3.68; for CVQCKMPVCYQCLFEGKHSSHEVK [E14F] it is 2.97.
The figure for CVQCKMPVCYQCLMEGKHSSHEVK [E14M] is 3.17; for CVQCKMPVCYQCLTEGKHSSHEVK [E14T] it is 3.53.
Consider CVQCKMPVCYQCLEEGKHSSHEVE [K24E], for which the protein stability index was 4.59.
The same measure for CVQCKMPVCYQCLEEGKHSSHEVF [K24F]: 2.85; for CVQCKMPVCYQCLEEGKHSSHEVY [K24Y]: 3.41.
With CVQCKMPVCYQCLEEGKHSSHEVI [K24I], the protein stability index amounted to 2.95.
The same measure for CVQCKMPVCYQCLEEGKHSSHEVS [K24S]: 3.71; for CVQCKMQVCYQCLEEGKHSSHEVK [P7Q]: 3.83; for CVQCKMWVCYQCLEEGKHSSHEVK [P7W]: 3.18.
The same measure for CVQCKMVVCYQCLEEGKHSSHEVK [P7V]: 3.52; for CVQCKMNVCYQCLEEGKHSSHEVK [P7N]: 4.14; for CVQDKMPVCYQCLEEGKHSSHEVK [C4D]: 4.01.
The same measure for CVQLKMPVCYQCLEEGKHSSHEVK [C4L]: 3.68; for CVQIKMPVCYQCLEEGKHSSHEVK [C4I]: 2.44; for CVQKKMPVCYQCLEEGKHSSHEVK [C4K]: 4.13.
Turning to CVQTKMPVCYQCLEEGKHSSHEVK [C4T], the protein stability index came to 2.93.
The figure for CVQNKMPVCYQCLEEGKHSSHEVK [C4N] is 3.3.
The figure for CVQCKMPVCYQCNEEGKHSSHEVK [L13N] is 3.46; for CVQCKMPVCYQCCEEGKHSSHEVK [L13C] it is 4.88; for CVQCKMPVCYQCYEEGKHSSHEVK [L13Y] it is 3.48.
As for CVQCKMPVCYQCAEEGKHSSHEVK [L13A], the protein stability index stood at 4.22.
The figure for CVQCKMPVCYQCFEEGKHSSHEVK [L13F] is 3.86.
In the case of CVQCKMPVCYQCWEEGKHSSHEVK [L13W], the protein stability index worked out at 4.7.
For CVQCKMPVCYDCLEEGKHSSHEVK [Q11D], the protein stability index stood at 4.05.
The figure for CVQCKMPVCYTCLEEGKHSSHEVK [Q11T] is 4.12; for CVQCKMPVCYLCLEEGKHSSHEVK [Q11L] it is 2.
The figure for CVQCKMPVCYVCLEEGKHSSHEVK [Q11V] is 3.27; for CVQCKMPVCYNCLEEGKHSSHEVK [Q11N] it is 4.27.
The figure for CVNCKMPVCYQCLEEGKHSSHEVK [Q3N] is 4.49; for CVECKMPVCYQCLEEGKHSSHEVK [Q3E] it is 3.82.
On to CVWCKMPVCYQCLEEGKHSSHEVK [Q3W], for which the protein stability index was found to be 2.88.
The same measure for CVHCKMPVCYQCLEEGKHSSHEVK [Q3H]: 4.52.
As for CVFCKMPVCYQCLEEGKHSSHEVK [Q3F], the protein stability index is 3.1.
The figure for CVQCKMPYCYQCLEEGKHSSHEVK [V8Y] is 3.01; for CVQCKMPTCYQCLEEGKHSSHEVK [V8T] it is 3.79.
The figure for CVQCKMPCCYQCLEEGKHSSHEVK [V8C] is 3.95.
On to CVQCKMPGCYQCLEEGKHSSHEVK [V8G], for which the protein stability index came to 4.82.
The figure for CVQCKMPVCYQCLEELKHSSHEVK [G16L] is 3.49; for CVQCKMPVCYQCLEEKKHSSHEVK [G16K] it is 3.57.
The same measure for CVQCKMPVCYQCLEEYKHSSHEVK [G16Y]: 3.41; for CVQCKMPVCYQCLEENKHSSHEVK [G16N]: 4.09; for CVQCKMPVCYQCLEEVKHSSHEVK [G16V]: 3.62.
The figure for CVQCKMPVCYQCLEECKHSSHEVK [G16C] is 4.33; for CVQCKMPVCYQCLEEGKHLSHEVK [S19L] it is 3.89.
On to CVQCKMPVCYQCLEEGKHPSHEVK [S19P], for which the protein stability index stood at 4.17.
The same measure for CVQCKMPVCYQCLEEGKHVSHEVK [S19V]: 3.86.
The figure for CVQCKMPVCYQCLEEGKHKSHEVK [S19K] is 3.9.
The same measure for CVQCKMPVCYQCLEEGKHWSHEVK [S19W]: 3.35.
Consider CVQCKMPVCYQCLEEGKHSSHEGK [V23G], for which the protein stability index was found to be 3.84.
The figure for CVQCKMPVCYQCLEEGKHSSHERK [V23R] is 3.24.
Regarding CVQCKMPVCYQCLEEGKHSSHEQK [V23Q], the protein stability index is 3.85.
The figure for CVQCKMPVCYQCLEEGKHSSHEEK [V23E] is 4.28; for CVQCKNPVCYQCLEEGKHSSHEVK [M6N] it is 4.22.
The same measure for CVQCKLPVCYQCLEEGKHSSHEVK [M6L]: 3.99; for CVQCKGPVCYQCLEEGKHSSHEVK [M6G]: 4.93; for CVQCKQPVCYQCLEEGKHSSHEVK [M6Q]: 4.36.
The figure for CVQCKAPVCYQCLEEGKHSSHEVK [M6A] is 3.95.
For CVQCKMPVCYQCLEEGKHSSYEVK [H21Y], the protein stability index worked out at 3.14.
The figure for CVQCKMPVCYQCLEEGKHSSQEVK [H21Q] is 4.16; for CVQCKMPVCYQCLEEGKHSSDEVK [H21D] it is 3.88.
The figure for CVQCKMPVCYQCLEEGKHSSIEVK [H21I] is 3.66; for CVQCKMPVNYQCLEEGKHSSHEVK [C9N] it is 3.87; for CVQCKMPVGYQCLEEGKHSSHEVK [C9G] it is 4.47.
The figure for CVQCKMPVDYQCLEEGKHSSHEVK [C9D] is 4.45; for CVQCKMPVQYQCLEEGKHSSHEVK [C9Q] it is 4.09; for CVQCKMPVCYQCLEEGKSSSHEVK [H18S] it is 4.42.
CVQCKMPVCYQCLEEGKCSSHEVK [H18C]: the protein stability index came to 3.79.
The figure for CVQCKMPVCYQCLEEGKLSSHEVK [H18L] is 3.55; for CVQCKMPVCHQCLEEGKHSSHEVK [Y10H] it is 4; for CVQCKMPVCSQCLEEGKHSSHEVK [Y10S] it is 3.97.
The same measure for CVQCKMPVCNQCLEEGKHSSHEVK [Y10N]: 4.27; for CVQCKMPVCAQCLEEGKHSSHEVK [Y10A]: 4.26; for CVQCKMPVCMQCLEEGKHSSHEVK [Y10M]: 4.08.
Consider CVQCKMPVCFQCLEEGKHSSHEVK [Y10F], for which the protein stability index was 4.
The same measure for CVQCKMPVCEQCLEEGKHSSHEVK [Y10E]: 4.32; for CVQCKMPVCDQCLEEGKHSSHEVK [Y10D]: 4.83.
In the case of CVQCKMPVCCQCLEEGKHSSHEVK [Y10C], the protein stability index was found to be 3.58.

The values are drawn from the supplement of paper PMC10567573.
